Results reported in patent US20060003400A1, “Methods and compositions for characterizing a redox reagent system enzyme” (priority 2004, published 2006).
Positions count from the first letter of the chain named.

B1: wild-type s-GDH: soluble form of pyrroloquinoline quinone (PQQ)-dependent glucose dehydrogenase, naturally occurring (protein, UniProt P13650 25-478, looked up)
Quinoprotein glucose …: DVPLTPSQFAKAKSENFDKKVILSNLNKPHALLWGPDNQIWLTERATGKILRVNPESGSVKTVFQVPEIVNDADGQNGLLGFAFHPDFKNNPYIYISGTFKNPKSTDKELPNQTIIRRYTYNKSTDTLEKPVDLLAGLPSSKDHQSGRLVIGPDQKIYYTIGDQGRNQLAYLFLPNQAQHTPTQQELNGKDYHTYMGKVLRLNLDGSIPKDNPSFNGVVSHIYTLGHRNPQGLAFTPNGKLLQSEQGPNSDDEINLIVKGGNYGWPNVAGYKDDSGYAYANYSAAANKSIKDLAQNGVKVAAGVPVTKESEWTGKNFVPPLKTLYTVQDTYNYNDPTCGEMTYICWPTVAPSSAYVYKGGKKAITGWENTLLVPSLKRGVIFRIKLDPTYSTTYDDAVPMFKSNNRYRDVIASPDGNVLYVLTDTAGNVQKDDGSVTNTLENPGSLIKFTYKAK
B2: Asn452Thr: mutant form of s-GDH with one amino acid substitution, Asn452Thr (protein, UniProt P13650 25-478, looked up, variant N452T)
Quinoprotein glucose …: B1 Quinoprotein glucose … with N428T
B3: Asp167Glu: mutant form of s-GDH with one amino acid substitution, Asp167Glu (protein, UniProt P13650 25-478, looked up, variant D167E)
Quinoprotein glucose …: B1 Quinoprotein glucose … with D143E

Columns and labels:
Type in all cases: biochemical
[1] = Conventional enzyme-coated test strips dosed with whole blood spiked with interfering sugar, chronoamperometry; conditions: whole blood about 80 mg/dL glucose spiked with about 4 mM or 12 mM xylose; FIG. 4
Description: In order to develop an assay for screening mutant forms of s-GDH with varying sugar specificities, the response of wild type and mutant forms of s-GDH with reducing sugars first were tested in a conventional enzyme-coated glucose test strip format. The screening assay ideally mimics the response shown with conventionally enzyme-coated strips tested with whole blood or plasma spiked with a reducing sugar. The mutant forms of s-GDH tested contained one amino acid substitution each: Asn452Thr and Asp167Glu. The test strips were made by a web-based process in which the working electrode (gold) was slot coated with a buffered reagent solution containing approximately 50 to 500 kU/ml wild type or mutant s-GDH, PQQ at a 2 to 1 mole ratio of PQQ to GDH, 2 mM CaCl2, 750 mM ferricyanide, 67 mM citraconate at pH 6.8, 0.1% pluronics and 75 mM sucrose. […] The activity of each enzyme was based on a spectrophotometric assay using DCIP (2,6-Dichlorophenolindophenol) and PES (Phenazine Ethosulfate) in 50 mM PIPES (Piperazine, N,N′bis-(2-ethanesulfonic acid)) buffer at pH 6.8. In the assay, change in the absorbance of DCIP at 600 nm was monitored and the decreasing rate of absorbance was referred to as the reaction rate of the enzyme. The enzyme activity by which […] of DCIP was reduced in one minute was defined as 1 Unit. The molar absorption coefficient of DCIP at pH 6.8 was 17.4 mM-1. A COBAS FARA II centrifugal analyzer was used for the spectrophotometric assay. […]
Whole blood at about 80 mg/dL (or 4.4 mM) of endogenous glucose was spiked with either a high therapeutic level (about 60 mg/dL or 4 mM) or three times a high therapeutic level (about 180 mg/dL or 12 mM) of the interfering sugar xylose. The spiked samples were dosed onto the above test strips and glucose concentration was determined by chronoamperometry in which a potential of −0.3 V was applied for 10 seconds, followed by applying a potential of +0.3 V for 5 seconds. Absolute bias to a control sample with no xylose was calculated for each enzyme and was expressed as a function of xylose concentration, as shown in FIG. 4.

[2] = Conventional wild type s-GDH-coated test strips dosed with plasma spiked with reducing sugars, chronoamperometry; conditions: plasma spiked with up to 40 mM of five reducing sugars; at less than about 10 mM; FIG. 5
Description: (§1) In order to develop an assay for screening mutant forms of s-GDH with varying sugar specificities, the response of wild type and mutant forms of s-GDH with reducing sugars first were tested in a conventional enzyme-coated glucose test strip format. The screening assay ideally mimics the response shown with conventionally enzyme-coated strips tested with whole blood or plasma spiked with a reducing sugar. The mutant forms of s-GDH tested contained one amino acid substitution each: Asn452Thr and Asp167Glu. The test strips were made by a web-based process in which the working electrode (gold) was slot coated with a buffered reagent solution containing approximately 50 to 500 kU/ml wild type or mutant s-GDH, PQQ at a 2 to 1 mole ratio of PQQ to GDH, 2 mM CaCl2, 750 mM ferricyanide, 67 mM citraconate at pH 6.8, 0.1% pluronics and 75 mM sucrose. […] In the assay, change in the absorbance of DCIP at 600 nm was monitored and the decreasing rate of absorbance was referred to as the reaction rate of the enzyme. […]
(§2) Plasma with about 80 mg/dL (or 4.4 mM) endogenous glucose was spiked with up to 40 mM each of five reducing sugars: glucose, maltose, xylose, galactose and lactose. The spiked samples were dosed onto the above test strips and glucose concentration was determined by chronoamperometry as above. […]

[3] = DCIP/PES spectrophotometric assay (enzyme-limiting conditions); conditions: same range of sugar concentrations; results not shown
Description: as §1, §2

[4] = Enzyme/sugar solution dosed onto enzyme-free electrochemical cell (process of the invention), current response; conditions: FIGS. 6-8; for Current response to xylose compared with glucose: xylose less than 10 mM, about 13 activity units per cell; for Current response to all reducing sugars tested: sugars up to about 40 mM
Description: The response of wild-type s-GDH to reducing sugars was measured using electrochemical cells (i.e., test strips) made by a web-based process in which the working electrode (gold) was slot coated with a buffered reagent solution containing 750 mM ferricyanide, 67 mM citraconate at pH 6.8, 0.1% pluronics and 75 mM sucrose. As in Example 1, an IR energy source was used to dry the reagent onto the working electrode. Electrochemical cells were formed by adhering the working electrode with dried reagent to a gold counter electrode containing dried MESA to prevent fouling of the counter electrode.
Wild-type s-GDH in 67 mM citraconate at pH 6.8 with PQQ at a 2 to 1 mole ratio of PQQ to GDH and 2 mM CaCl2 was mixed with physiologically relevant concentrations (up to about 40 mM or 720 mg/dL) of one of the following sugars: glucose, xylose, galactose, maltose, or lactose. The concentration of the wild type s-GDH in each solution was adjusted such that approximately 13 activity units per electrochemical cell were used. Each enzyme/sugar-containing solution was dosed onto an electrochemical cell containing dried ferricyanide, citraconate, Pluronics and sucrose but no enzyme (see above for concentrations). The current response was measured and the average of three determinations was graphed as a function of sugar concentration, as shown in FIG. 6.
The response of Asn452Thr to reducing sugars was measured using the same lot of electrochemical cells as described in Example 2 above (i.e., with cells containing dried ferricyanide, citraconate, Pluronics and sucrose but no enzyme). Asn452Thr was mixed with physiologically relevant concentrations (up to about 40 mM or 720 mg/dL) of one of the following sugars: glucose, xylose, galactose, maltose, or lactose. The concentration of Asn452Thr in each solution was adjusted such that approximately 13 activity units per electrochemical cell were used. Each enzyme/sugar-containing solution was dosed onto an electrochemical cell containing dried ferricyanide, citraconate, Pluronics and sucrose but no enzyme. […] Thus, the assay mimics the results obtained with Asn452Thr-coated strips with the advantages discussed above.
The response of Asp167Glu to reducing sugars was measured as described in Example 3 above. Asp167Glu was mixed with physiologically relevant concentrations (up to about 40 mM or 720 mg/dL) of one of the following sugars: glucose, xylose, galactose, maltose, or lactose; and dosed onto an electrochemical cell containing dried ferricyanide, citraconate, Pluronics and sucrose but no enzyme. […] Thus, again, the assay beneficially mimics the results obtained with Asp167Glu-coated strips but in a quick and easy-to-use format.

Molecule	Absolute bias to a control sample with no xylose as a function of xylose concentration [1]	Current response as a function of sugar concentration [2]	Reactivity with xylose and galactose [3]	Current response to xylose compared with glucose [4]	Current response to all reducing sugars tested [4]
B1	linear correlation	reacts equally well with each of the five reducing sugars tested	low reactivity with xylose and galactose	reacted equally well with glucose and xylose	
B2	linear correlation			reacts equally well with glucose and xylose	reacts equally well with all the sugars tested at less than 10 mM sugar
B3	reduced response with xylose			reduced response to xylose	reacts equally well with all the other reducing sugars tested
